Assay results as given in PMC3608532, “Characterization of a Single-Chain Variable Fragment Recognizing a Linear Epitope of Aβ: A Biotechnical Tool for Studies on Alzheimer’s Disease?” (PLoS ONE, 2013).

Experiments:
Assay in all cases: SPR; Biacore X; Aβ peptides coupled via the C-terminal cysteine to a CM5 chip; IC16 injected (10 to 1000 nM), 20 µl/min, PBS, 25°C; global fit, bivalent binding model
Conditions in all cases: both partners purified
Aβ(3-8)-GSGSC = biological target: T1, Aβ(3-8)-GSGSC (human)
T1 construct: amyloid-β peptide (Aβ), cut from the amyloid precursor protein (APP), human, residues 3-8; C-terminal spacer with the cysteine by which the peptide was coupled to the chip; source: synthetic peptide, bought: JPT
T1 chain: EFRHDSGSGSC

Aβ(2-8)-GSGSC = biological target: T2, Aβ(2-8)-GSGSC (human)
T2 construct: amyloid-β peptide (Aβ), cut from the amyloid precursor protein (APP), human, residues 2-8; C-terminal spacer with the cysteine by which the peptide was coupled to the chip; source: synthetic peptide, bought: JPT
T2 chain: AEFRHDSGSGSC

Aβ(1-8)-GSGSC = biological target: T3, Aβ(1-8)-GSGSC (human)
T3 construct: amyloid-β peptide (Aβ), cut from the amyloid precursor protein (APP), human, residues 1-8; C-terminal spacer with the cysteine by which the peptide was coupled to the chip; source: synthetic peptide, bought: JPT
T3 chain: DAEFRHDSGSGSC

Kd (Aβ(3-8)-GSGSC): 82 nM
koff (Aβ(3-8)-GSGSC): 0.00343 s⁻¹
kon (Aβ(3-8)-GSGSC): 41700 M⁻¹ s⁻¹
Kd (Aβ(2-8)-GSGSC): 32 nM
koff (Aβ(2-8)-GSGSC): 0.00154 s⁻¹
kon (Aβ(2-8)-GSGSC): 48500 M⁻¹ s⁻¹
Kd (Aβ(1-8)-GSGSC): 51 nM
koff (Aβ(1-8)-GSGSC): 0.0018 s⁻¹
kon (Aβ(1-8)-GSGSC): 35000 M⁻¹ s⁻¹
B1: monoclonal IgG2a antibody IC16 (antibody, V domains shown)
VH: QVTLKESGPGILQPSQTLSLTCSFSGFSLSTSGMGVSWIRQPSGKGLEWLAHIFWDDDKNYNPSLKSRLTVSKDTSRNQVFLKITSVDTSDTATYYCARSPHLRGYDVDFDYWGQGTTLTVSS
VL: DVLMTQTPLSLPVSLGDQASISCRSSQSLVHSNGNTYLHWYLQKPGQSPKVLIYKVSNRFSGVPDRFSGSGSGTDFTLKISRVEAEDLGVYFCSQSTHVPLTFGAGTKLELK
notes: IgG2a; raised in a PrP knockout mouse against KLH Aβ(1-16); also called monoclonal parent antibody IC16; source: IC16 hybridoma (mouse); copies: 2 + 2
